From patent US20060024308A1

Experiments:
human TNF-α (human) [1] = target: human TNF-α (human) (UniProt P01375)
human TNF-α (human) [2] = target: human TNF-α (human) (UniProt P01375); experiment: cell-based or functional assay

human TNF-α (human), sequence (P01375 77-233 limits assumed): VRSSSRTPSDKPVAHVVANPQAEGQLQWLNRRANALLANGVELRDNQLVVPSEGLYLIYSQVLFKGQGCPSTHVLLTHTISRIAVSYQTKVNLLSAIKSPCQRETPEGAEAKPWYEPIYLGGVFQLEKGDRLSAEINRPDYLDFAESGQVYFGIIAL

Which ND50 (L929 cell survival, neutralisation of TNF-α cytotoxicity) (human TNF-α (human) [1]) does the source give for Humira (IgG1) (antibody) here?
The ND50 (L929 cell survival, neutralisation of TNF-α cytotoxicity) was 28 pM.

What about the Average IC50, neutralization of TNF-α cytotoxicity on L929 cells (human TNF-α (human) [2]) of the same substance?
Its Average IC50, neutralization of TNF-α cytotoxicity on L929 cells is 0.023 nM.
